Measured values as given in patent US20100291089A1, “LIGAND OF REGULATING IMMUNE RESPONSE, AND USE THEREOF IN TREATING AN IMMUNE RESPONSE-RELATED DISEASE” (POSTECH ACADEMY-INDUSTRY FOUNDATION, priority 2005, published 2010).
Where no end group is shown, it is not given here. [ ]: non-standard residue; d: D form.

B1: SAA: Serum amyloid A, multi-functional apolipoprotein, 12- to 14-kDa, SEQ ID NO:19 (protein, listed as Homo sapiens)
chain: MKLLTGLVFCSLVLGVSSRSFFSFLGEAFDGARDMWRAYSDMREANYIGSDKYFHARGNYDAAKRGPGGVWAAEAISDARENIQRFFGHGAEDSLADQAANEWGRSGKDPNHFRPAGLPEKY

Legend:
human neutrophils = test: Intracellular calcium mobilization (fura-2) in human neutrophils; type: cell-based; details: 1 M PACAP27 and 10 nM WKYMVm
Procedure: Neutrophils were stimulated with 1 μM of PACAP27 (SEQ ID NO:1), PACAP38 (SEQ ID NO:2), or VIP (SEQ ID NO:3), and calcium concentrations were measured for 10 min. In order to measure EKR phosphorylation, each peptide hormones was used with 1 μM concentrations for 5 min. For cAMP measurement, each peptide hormones was used with 1 μM concentrations for 10 min.
Intracellular calcium concentrations ([Ca^2+]i) were determined using Grynkiewicz's method with fura-2/AM, as described in “Grynkiewicz, G., M. Poenie, and R. Y. Tsien. 1985. […] J. Biol. Chem. 260:3440-3450”. Briefly, the cells prepared in Example 1.2 were incubated with 3 µM fura-2/AM at 37° C. for 50 minutes in fresh serum free RPMI 1640 medium with continuous stirring. The incubated cells (2×10^6) were aliquoted for each assay in Ca^2+-free Locke's solution (154 mM NaCl, 5.6 mM KCl, 1.2 mM MgCl2, 5 mM HEPES (pH 7.3), 10 mM glucose, and 0.2 mM EGTA). Fluorescence changes at 340 and 380 nm using a common emission wavelength of 500 nm were measured, and fluorescence ratios were converted to [Ca2+]i, as described in above Grynkiewicz, G. et al.

RA FLS = test: Apoptosis assay (MTT, DNA fragmentation ELISA) in RA FLS; type: cell-based, human; details: for serum starvation-induced apoptosis (MTT assay, DNA fragmentation ELISA): 72 h
Procedure: Synoviocyte apoptosis was induced via 3 days of serum deprivation, or by treating the cells for 12 h with either SNP (0.7 mM) or anti-Fas IgM (0.7 μg/ml) plus cyclohexamide (CHX; 1 μg/ml). The degree of apoptosis was then evaluated via MTT assay and ELISA for DNA fragmentation. In the MTT assay, FLS were seeded in 24-well culture plates at a density of 2×10^4 cells/well. After 96 h of incubation with SAA (SEQ ID NO:19) or media alone, MTT solution was added to each of the wells, and then incubated for 2 additional hours. The reaction was halted via the removal of MTT. Thereafter, DMSO (200 μL) was added in order to solubilize the formazan crystals. The plates were then subjected to 5 minutes of gentle shaking in order to ensure that the crystals had dissolved completely, and the absorbance was read at 540 nm with a microplate reader. The cellular DNA fragmentation assay was conducted using an ELISA kit (Roche Applied Science), based on the quantitative sandwich ELISA principle, using two mouse monoclonal antibodies (Roche Applied Science) targeted against DNA and 5-bromo-2′-deoxyuridine (BrdU).
In brief, the BrdU-labeled DNA fragments of the samples were bound to the immobilized anti-DNA antibody, fixing it within the wells of a microtiter plate. The immune-complexed BrdU-labeled DNA fragments were then denatured and fixed to the surfaces of the plates via the application of microwave irradiation. In the final step, the anti-BrdU peroxidase conjugate was allowed to react with the BrdU that had been incorporated into the DNA. After the removal of the unbound peroxidase conjugates, the quantity of peroxidase bound within the immune complex was determined photometrically, using TMB as a substrate.

HUVECs [1] = test: HUVEC proliferation ([3H]-thymidine incorporation); type: cell-based, human; details: 48 h
Procedure: In brief, fresh synovial tissues were minced into 2- to 3-mm pieces, then treated for 4 h with 4 mg/ml type I collagenase (Worthington Biochemical), and maintained in Dulbecco's Modified Eagle's Medium (DMEM) containing 10% FBS at 37° C. in an atmosphere containing 5% CO2. […] MH7A cells, the immortalized synoviocytes that harbor the SV40 T antigen, were grown in DMEM supplemented with 10% FBS, as previously described (Miyazawa, K, A. Mori, and H. Okudaira. 1998. Establishment and characterization of a novel human rheumatoid fibroblast-like synoviocyte line, MH7A, immortalized with S[…] antigen. J. Biochem. 124: 1153-1162), and then employed in some of the experiments. Human umbilical vein endothelial cells (HUVECs) were isolated from fresh human umbilical cords via collagenase (Worthington Biochemical) digestion, and then maintained in 20% FBS-containing M-199 medium (Sigma, St. Louis, Mo.), as previously described. All HUVECs were used after no more than five passages. The RA FLS, OA FLS, and HUVECs were plated onto 24-well culture dishes at a density of 2×10^4 cells/well, and then permitted to attach overnight. […] Cell growth was also evaluated via cell counts. Control and mitogen-treated cells were harvested by trypsinization, and the number of cells was determined with a hemocytometer, under ×100 magnification.

HUVECs [2] = test: HUVEC tube formation assay on Matrigel; type: cell-based, human; details: SAA 5 μM, 18 h
Procedure: The wounding migration and tube formation activity of the HUVECs were measured as previously described (30, 31). In brief, HUVECs plated at confluence on 60-mm culture dishes were wounded with pipette tips, then treated with SAA (SEQ ID NO:19) (0-5 μg/ml), WKYMVm (SEQ ID NO:5) (10 nM), or VEGF (20 ng/ml) in M199 medium, supplemented with 1% serum and 1 mM thymidine. After 12 h of incubation, migration was quantitated via counts of the cells migrating beyond the reference line. […] After 18 h of incubation, the cell morphology was visualized via phase-contrast microscopy and photographed.

aortic rings = test: Rat aorta ring assay; details: ex vivo, 7 days
Procedure: Aortas from male Sprague-Dawley rats were cross-sectioned into rings, and mounted onto polymerized Matrigel dishes. Matrigel (150 μl) was then positioned on top and allowed to gel. After 7 days, the aortic rings, incubated with PBS, SAA (SEQ ID NO:19) (3 and 5 μg/ml), WKYMVm (SEQ ID NO:5) (10 nM), VEGF (20 ng/ml), or FBS (10%) were analyzed under an inverted microscope.

Row | Molecule | calcium signaling on sequential stimulation (cross-desensitization) (human neutrophils) | serum starvation-induced apoptosis (MTT assay, DNA fragmentation ELISA) (RA FLS) | DNA fragmentation induced by SNP (0.7 mM) or anti-Fas (0.7 μg/ml) plus CHX (1 μg/ml) (RA FLS; SAA 3 μM, 12 h) | concentration of maximum effects on HUVEC DNA synthesis (HUVECs [1]) [µM] | DNA synthesis in HUVECs (HUVECs [1]; SAA 0.1 to 5 μM) | formation of tube-like structures (HUVECs [2]) | sprouting of endothelial cells from aortic rings (aortic rings)
1 | WKYMVm: specific agonist peptide for FPRL1, SEQ ID NO:5 (WKYMV[dM]; listed as Homo sapiens) | bidirectional desensitization | mitigating starvation-induced cell death | – | – | – | – | –
2 | B1 | – | dose-dependent inhibition | blocked almost completely | 5 | dose-dependent manner | far superior | increased as the result of SAA treatment, in a dose-dependent manner
